# Target: human CD3 (human) (UniProt P07766)
# Sequence (P07766 23-207 limits assumed, chain 1 of 2): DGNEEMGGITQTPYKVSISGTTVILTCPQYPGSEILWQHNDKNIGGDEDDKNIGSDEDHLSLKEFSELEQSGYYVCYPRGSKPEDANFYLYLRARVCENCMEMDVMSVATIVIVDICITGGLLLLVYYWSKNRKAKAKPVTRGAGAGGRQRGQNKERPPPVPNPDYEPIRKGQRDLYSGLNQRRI
# Sequence (chain, as listed by the source limits assumed, chain 2 of 2): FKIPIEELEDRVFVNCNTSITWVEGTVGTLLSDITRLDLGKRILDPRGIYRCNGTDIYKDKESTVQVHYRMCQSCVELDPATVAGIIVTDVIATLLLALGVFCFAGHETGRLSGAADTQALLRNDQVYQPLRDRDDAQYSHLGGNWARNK
substance,measurement,value
TNB-384B (bispecific antibody),Kd,30 nM

# Source: patent US20250179180A1
